Laboratory results reported in paper PMC4251946, “The mechanism of H171T resistance reveals the importance of Nδ-protonated His171 for the binding of allosteric inhibitor BI-D to HIV-1 integrase” (Retrovirology, 2014).

Columns and labels:
[1] = target: H171T HIV-1 integrase (IN) (HIV-1); test: SEC; Superdex 200 10/300 GL; 20 mM HEPES pH 6.8, 750 mM NaCl, 10 mM MgSO4, 0.2 mM EDTA, 5 mM BME, 5% glycerol, 200 μM ZnCl2; 4°C; tetramer and monomer peaks
[2] = target: H171T HIV-1 integrase (IN) (HIV-1); test: AlphaScreen or HTRF
LEDGF/p75 = target: T1, LEDGF/p75 (UniProt O75475 1-530); test: AlphaScreen or HTRF; details: both partners purified
T1 construct: source: E. coli, purified as described previously [37]; not shown: FLAG, C-terminal, kept

H171T HIV-1 integrase (IN) (enzyme)
stoichiometry N [1]: 4

LEDGF/p75 (from UniProt O75475 1-530) (natural protein)
Kd [2]: 10.5 nM

B1: WT HIV-1 integrase (IN) (enzyme)
chain: FLDGIDKAQEEHEKYHSNWRAMASDFNLPPVVAKEIVASCDKCQLKGEAMHGQVDCSPGIWQLDCTHLEGKVILVAVHVASGYIEAEVIPAETGQETAYFLLKLAGRWPVKTVHTDNGSNFTSTTVKAACWWAGIKQEFGIPYNPQSQGVIESMNKELKKIIGQVRDQAEHLKTAVQMAVFIHNFKRKGGIGGYSAGERIVDIIATDIQTKELQKQITKIQNFRVYYRDSRDPVWKGPAKLLWKGEGAVVIQDNSDIKVVPRRKAKIIRDYGKQMAGDDCVASRQDED
notes: also called WT IN; source: E. coli, purified as described previously [37]; not shown: 6xHis, N-terminal, kept
Kd (LEDGF/p75): 3.3 ± 0.3 nM
